What was measured:
[1] = target: T1, human insulin receptor (human, UniProt P06213 28-1382); test: cell-based or functional assay
[2] = target: T1, human insulin receptor; test: cell-based or functional assay; remark: listed apart in the source
[3] = target: T2, mouse insulin receptor (mouse, UniProt P15208 28-1372); test: cell-based or functional assay
[4] = target: T3, human insulin receptor complexed with human insulin (human, UniProt P06213 28-1382; P01308 25-54; P01308 90-110); test: KinExA, affinity with insulin against affinity without insulin
T3 construct: whole, on cells;mature; also called hINSR-hINS complex; INS/INSR complex
Procedure: (§1) Beads were rotated at room temperature for 6 hours then allowed to settle. Supernatant was replaced with PBS with 50 mg/mL BSA Fraction V (Sigma-Aldrich, St. Louis, Mo.) and rotated overnight at 4° C. […] On the KinExA 3000 the sample was injected at 0.25 mL/minute for 240 seconds, then rinsed for 60 seconds in running buffer (PBS with 0.05% sodium azide), then 240 seconds of the detection solution was injected, followed by a final 90 second wash at 1 mL/minute. The difference in voltage from an early initial time-point and a time point near the end of the run was measured and used to calculate affinities. The INSR concentration on the cells was estimated at 2.5×10⁵ receptors/cell. Affinity was determined using the KinExA software (Sāpidyne, Boise Id.) and EC50's were calculated by non-linear fit in Prism (GraphPad Software, La Jolla Calif.).
(§2) Samples were incubated overnight at 4° C. for 18 hours then centrifuged to pellet cells and supernatants were removed for testing on the KinExA. […] Detection solution used was R-PE-(Fab′)2 fragment goat anti-Human IgG(H+L) (Jackson Immuno Research, West Grove Pa.).

[5] = target: T1, human insulin receptor; test: KinExA antibody depletion by hINSR8-CHOK1 cells, without insulin
Procedure: as §1, §2

[6] = target: T3, human insulin receptor complexed with …; test: KinExA antibody depletion by hINSR8-CHOK1 cells, with 175 nM insulin
Procedure: as §1, §2

[7] = target: T1, human insulin receptor; test: FACS, serum-starved CHO-K1 cells expressing human INSR, no insulin [cont'd]
Procedure: (§3) Twenty five microliter aliquots of cells were plated into 96 well plates, mixed with 25 ul of antibody or PPE and incubated on ice for 1 h.
(§4) The cells were then washed once with FACS buffer and the binding of the antibody was detected by the addition of 25 ul of an appropriate fluorochrome-conjugated secondary antibody. […] After a final 15 min incubation on ice the cells were washed and the pellets resuspended in FACS buffer. The cells were analyzed on a FACSCAN™ (Becton-Dickinson, Milipitas, Calif.) and the data analyzed in both FLOWJO™ (Treestar, Ashland, Oreg.) and Microsoft Excel™.

[8] = target: T2, mouse insulin receptor; test: FACS, serum-starved CHO-K1 cells expressing mouse INSR, no insulin [cont'd]
Procedure: as §3, §4

[9] = target: T3, human insulin receptor complexed with …; test: FACS, serum-starved CHO-K1 cells expressing human INSR, with insulin [cont'd]
Procedure: as §3, §4

[10] = target: T4, mouse insulin receptor complexed with human insulin (mouse; human, UniProt P15208 28-1372; P01308 25-54; P01308 90-110); test: FACS, serum-starved CHO-K1 cells expressing mouse INSR, with insulin [cont'd]
T4 construct: whole, on cells;mature; also called muINSR/hINS complex

[11] = target: T3, human insulin receptor complexed with …; test: FACS, CHO-K1 human INSR cells, signal with insulin divided by signal without insulin [cont'd]
Procedure: as §3, §4

[12] = target: T4, mouse insulin receptor complexed with …; test: FACS, CHO-K1 mouse INSR cells, signal with insulin divided by signal without insulin [cont'd]
[13] = target: T2, mouse insulin receptor; test: FACS on mouse INSR; conditions not given on the sheet [cont'd]
[14] = target: T1, human insulin receptor; test: cell-based or functional assay; remark: listed apart in the source
[15] = target: T1, human insulin receptor; test: cell-based or functional assay; remark: listed apart in the source
[16] = target: T2, mouse insulin receptor; test: cell-based or functional assay; remark: listed apart in the source
[17] = target: T1, human insulin receptor; test: FACS, serum-starved CHO-K1 cells expressing human INSR, no insulin
[18] = target: T2, mouse insulin receptor; test: FACS, serum-starved CHO-K1 cells expressing mouse INSR, no insulin
[19] = target: T3, human insulin receptor complexed with …; test: FACS, serum-starved CHO-K1 cells expressing human INSR, with insulin
Procedure: as §3, §4

[20] = target: T4, mouse insulin receptor complexed with …; test: FACS, serum-starved CHO-K1 cells expressing mouse INSR, with insulin
Procedure: as §3, §4

[21] = target: T3, human insulin receptor complexed with …; test: FACS, CHO-K1 human INSR cells, signal with insulin divided by signal without insulin
Procedure: as §3, §4

[22] = target: T4, mouse insulin receptor complexed with …; test: FACS, CHO-K1 mouse INSR cells, signal with insulin divided by signal without insulin
Procedure: as §3, §4

pAKT assay, fold-decrease in insulin EC50 relative to isotype control Ab [1] | Fold Improvement with Insulin [4] | Kd [5] | Kd [6] | FACS area under log transformed data MFI [8] | FACS area under log transformed data MFI [9] | FACS area under log transformed data MFI [10] | binding result [13] | EC50 of pAkt activation without insulin, human INSR CHO-K1 cells [15] | relative maximum pAkt activation without insulin, human INSR CHO-K1 cells [15] | EC50 of pAkt activation without insulin, mouse INSR CHO-K1 cells [16] | relative maximum pAkt activation without insulin, mouse INSR CHO-K1 cells [16] | Binder | also measured
6.7 fold | 19.4 fold | 9.6 nM | 0.496 nM | 154 | 385 | 215 |  |  |  |  |  | Ab079 (antibody, IgG2, V domains shown, also called XPA.015.245) VH: QMQLVQSGAEMKKPGASVKVSCKASGYSFSDYGITWVRQAPGQGPEWMGWISGYNGNTNYAQKFQDRVTMTTDTSTSTAYMELRSLKSDDTAVYFCARARGVWMFDNWGQGTLVTVSS VL: AIRMTQSPSTLSASVGDRVTITCRASQSISTWLAWYQQKPGKAPKLLIYTTSTLESGVPSRFSGSRSGTEFTLTISSLQPDDFATYYCQQYNSYPLTFGGGTKVEIK | fold-change in insulin EC50 (pAkt) relative to isotype control, 10 ug/ml Ab079, human INSR CHO-K1 cells [2]: 7 fold; fold-change in insulin EC50 (pAkt) relative to isotype control, 20 ug/ml Ab079, mouse INSR CHO-K1 cells [3]: 8 fold; FACS area under log transformed data MFI [7]: 296; FACS area under log transformed data MFI ratio (+insulin/-insulin) [11]: 1.3; FACS area under log transformed data MFI ratio (+insulin/-insulin) [12]: 1.39
 |  |  |  |  |  |  | no binding |  |  |  |  | Ab049 (antibody, V domains shown, also called XPA.015.165) VH: EVQLLESGGGLVQPGGSLRLSCAASGFTFSSNYMSWVRQAPGKGLEWVSSISGGSTYYADSRKGRFTISRDNSKNTLYLQMNSLRAEDTAVYYCARLDWSSGAFDIWGQGTLVTVSS VL: QSVLTQPPSASGTPGQRVTISCSGRSSNIGYNYVSWYQQLPGTAPKLLIYGNSNRPSGVPDRFSGSKSGTSASLAISGLRSEDEADYYCAAWDDSLSGPVFGGGTKLTVLG | 
 | 1.1 fold | 0.124 nM | 0.108 nM |  |  |  |  | 2.43 nM | 52% | 1.1 nM | 34% | Ab062 (antibody, IgG2, V domains shown, also called XPA.015.211) VH: QVQLQQWGAGLLKPSETLSLTCAVYGGSFSGYYWSWIRQPPGKGLEWIGEINHSGSTNYNPSLKSRVTISVDTSKNQFSLKLSSVTAADTAVYYCARGPSGWYIREFDYWGQGTLVTVSS VL: QSVLTQPPSVSGAPGQRVTISCTGSSSNIGAGYDVHWYQQLPGTAPKLLIYGNSNRPSGVPDRFSGSKSGTSASLAITGLQAEDEADYYCQSYDSSLSGSGVFGGGTKVTVL | fold rise of insulin EC50 (pAkt) in the presence of Ab062 [14]: 6.6 fold; FACS area under log transformed data MFI [17]: 1400; FACS area under log transformed data MFI [18]: 1450; FACS area under log transformed data MFI [19]: 790; FACS area under log transformed data MFI [20]: 1010; FACS area under log transformed data MFI ratio (+insulin/-insulin) [21]: 0.57; FACS area under log transformed data MFI ratio (+insulin/-insulin) [22]: 0.7
 | 1.5 fold | 0.148 nM | 0.096 nM |  |  |  |  | 0.42 nM | 64% | 0.69 nM | 48% | Ab053 (antibody, V domains shown, also called XPA.015.196) VH: not shown VL: QSALTQPRSVSESPGKTVTISCTGSGGSIGSNYVQWYQQRPGSAPTTVIFEDNRRPSGVPDRFSGSIHSSSNSASLTISGLKTEDEADYYCQSYVGTIVVFGGGTKVTVL | FACS area under log transformed data MFI [17]: 1330; FACS area under log transformed data MFI [18]: 1130; FACS area under log transformed data MFI [19]: 451; FACS area under log transformed data MFI [20]: 574; FACS area under log transformed data MFI ratio (+insulin/-insulin) [21]: 0.34; FACS area under log transformed data MFI ratio (+insulin/-insulin) [22]: 0.51
 |  |  |  |  |  |  | no binding |  |  |  |  | Ab047 (antibody, V domains shown, also called XPA.015.121) VH: EVQLLESGGGLVQPGGSLRLSCAASGFTFSSYAMSWVRQAPGKGLEWVSSISGGSTYYADSRKGRFTISRDNSKNTLYLQMNSLRAEDTAVYYCARHADQWPGSWFDPWGQGTLVTVSS VL: QSVLTQPPSASGTPGQRVTISCSGSSSNIGSNTVNWYQQLPGTAPKLLIYDNNKRPSGVPDRFSGSKSGTSASLAISGLRSEDEADYYCQSYDSSLSGWEVFGGGTKLTVLG | 
8.9 fold |  |  | 0.2 nM |  |  |  |  |  |  |  |  | Ab085 (antibody, IgG2, V domains shown, also called XPA.015.275) VH: EVQLVESGGGVVQPGRSLRLSCAASGFIFSSYGMHWVRQVPDKGLEWVAGISLRGSDNYYADSVKGRFTISRDNSKNTLYLQMNNLRPDDTAVYYCARGFRWPVTPFDHWGQGTLVTVSS VL: QTVVTQEPSFSVSPGGTVTLTCGLTSGSVSTRNFPGWYQQTPGQTLRTLIYNTNTRSSGVPDRFSGSILGNKAALTITGAQADDESDYYCVLYMTGDIWVFGGGTKVTVLG | fold-change in insulin EC50 (pAkt) relative to isotype control, 1 ug/ml Ab085, human INSR CHO-K1 cells [2]: 3 fold; fold-change in insulin EC50 (pAkt) relative to isotype control, 10 ug/ml Ab085, human INSR CHO-K1 cells [2]: 9 fold; fold-change in insulin EC50 (pAkt) relative to isotype control, 20 ug/ml Ab085, mouse INSR CHO-K1 cells [3]: 8 fold
 | 1.4 fold | 0.108 nM | 0.08 nM |  |  |  |  | 0.65 nM | 79% | 1.42 nM | 42% | Ab037 (antibody, V domains shown, Partial allosteric agonist; also called XPA.015.048) VH: EVQLLESGGGLVQPGGSLRLSCAASGFTFSSYEMNWVRQAPGKGLEWVSSISSSSRYADVANSVVGRFTISRDNSKNTLYLQMNSLRAEDTAVYYCARGEWLDHFDYWGQGTLVTVSS VL: QSVLTQPPSASGTPGQRVTISCSGSSSNIGNSAVNWYQQLPGTAPKLLIYDNNKRPSGVPDRFSGSKSGTSASLAISGLRSEDEADYYCQVWDSGTAVFGGGTKLTVLG | 
 |  | 7.6 nM | 0.376 nM | 81 | 294 | 179 |  |  |  |  |  | Ab083 (antibody, IgG2, V domains shown, also called XPA.015.249) VH: not shown VL: AIQLTQSPSSLSASVGDRVTISCRASQSITSYLNWYQQKPGKAPNLLIYAASSLQSGVPSRFSGSGSGTDFTLTIAGLQPEDFATYYCQQFDSYPFTFGGGTKLEIK | 
 |  |  |  |  |  |  | binds |  |  |  |  | Ab045 (antibody, V domains shown, also called XPA.015.111) VH: EVQLLESGGGLVQPGGSLRLSCAASGFTFSSYWMSWVRQAPGKGLEWVSGISGSGGSTDYADSVKGRFTISRDNSKNTLYLQMNSLRAEDTAVYYCARELPAFWSAFDYWGQGTLVTVSF VL: not shown | 
8.4 fold | 17.6 fold | 12 nM | 0.68 nM | 157 | 386 | 191 |  |  |  |  |  | Ab080 (antibody, IgG2, V domains shown, also called XPA.015.246) VH: EVQLVESGGGVVQPGGSLRLSCAASGFTFDDYAMHWVRQAPGKGLEWVSLISWDGGSTYYADSVKGRFTISRDNSKNSLYLQMNSLRAEDTALYYCAKARGVVIIDYWGQGTLVTVSS VL: EIVLTQSPGTLSLSPGERATLSCRASQSLSSSFLAWYQQKPGQAPRLLIYGAGSRATGVPDRFSGSGYGTDFSLTISRLELEDFAVYYCQQYDRSQITFGQGTRLEIK | FACS area under log transformed data MFI [7]: 282; FACS area under log transformed data MFI ratio (+insulin/-insulin) [11]: 1.37; FACS area under log transformed data MFI ratio (+insulin/-insulin) [12]: 1.22

Source: patent publication US20160009800A1 (XOMA US, published 2016)
